From the supplement of paper PMC9170038 come the findings set out here.

Series [1] concerns MS2 coat protein. Put plainly: apparent KD of MS2 coat protein, switch ON state; designed switch direction (-1 OFF switch, 1 ON switch): 1; higher = weaker reporter binding. As to conditions: FMN input: 0 or 200 uM; Eterna round: R93 (includes R88 designs). The essentials: (§1)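 With or without constant ligand, designed RNA switches in 100 mM Tris-HCl pH 7.5, 80 mM KCl and 4 mM MgCl2 were titrated with SNAP-549-labelled MS2 coat protein. Concentrations went up in twofold steps from 0.7 or 1.5 nM to 3 µM. The switches had been transcribed on-chip from Illumina sequencing clusters, and apparent KD is the per-design median of normalised cluster binding-curve fits.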

The subject of series [2] is MS2 coat protein. As to the kind of experiment: apparent KD of MS2 coat protein, switch OFF state (with FMN for OFF switches, without FMN for ON switches); designed switch direction (-1 OFF switch, 1 ON switch): 1; higher = weaker reporter binding. The following applies: FMN input: 0 or 200 uM; Eterna round: R93 (includes R88 designs). The essentials:
as §1

As to “AAAUAAAUGACUAAGGAUAUAUCAGAGAAAACAUGAGGAUCACCCAUGUAAUAAUAAAAAGGGUGAUAGAAGGUAGUCAACAAACA [Pariah 4 (MS2 Riboswitches - Same State 2)]”, the “apparent KD of MS2 coat protein” value was found to be 26 nM in the series on MS2 coat protein [1] and 154 nM in the series with MS2 coat protein [2].

On to “AAAUAAAUGACUAAGGAUAUUUCAGAGAAAACAUGAGGAUCACCCAUGUAAUAAUAAAAAGGGUGAGAGAAGGUAGUCAACAAAC [74%, More Paria 4]”, for which the “apparent KD of MS2 coat protein” value with MS2 coat protein [1] is 13.8 nM; in the series with MS2 coat protein [2] it was 25.7 nM.

For “AAAUAAAUGACUGAGGAUAUAUCGAAGAAGACAUGAGGAUCACCCAUGUAAUAAUAAAAAGGGUGGUAGAAGGUAGUCAACAAAC [Mod 9 of Pariah 4 by Hyphema in Round 1]”, the “apparent KD of MS2 coat protein” value in the series with MS2 coat protein [1] was found to be 331 nM; with MS2 coat protein [2] it was 376 nM.

As to “AAAUAAAUGACUGAGGAUAUAUCGAUGGGUACAUGAGGAUCACCCAUGUGUUAAUAAAAAGGGUGGUAGAAGGUAGUCAACAAAC [Mod 16 of Pariah 4 by Hyphema in Round 1]”, the “apparent KD of MS2 coat protein” value with MS2 coat protein [1] was determined as 238 nM; with MS2 coat protein [2], 748 nM.

As to “AAAUAACAUGAGGAUCACCCAUGUUACAACUUUACAGGAUAUGUGGGUGAAAAUAGCAUGACAGAAGGGUACAGUA [SameState1 Malc#35]”, the “apparent KD of MS2 coat protein” value came out at 171 nM with MS2 coat protein [1] and 158 nM in the series on MS2 coat protein [2].

As to “AAAUAGUGCACUAAGGAUAUGUCGCAUGACACAUGAGGAUCACCCAUGUGGUAACACAGAGGGUGGCAGAAGGUAGUGUGCAAAC [Mod 2 of Pariah 6 (Round1) by Hyphema]”, the “apparent KD of MS2 coat protein” value turned out to be 35.7 nM in the series on MS2 coat protein [1] and 446 nM with MS2 coat protein [2].

In the case of “AAAUAUAAAAACUAGGAUAUACUAAAAUAAACAUGAGGAUCACCCAUGUAAAAAAAAAAACUCAUGUAGAAGGAGUAAAUAUAAA [ss2 9th]”, the figures for the “apparent KD of MS2 coat protein” value with MS2 coat protein [1] and in the series on MS2 coat protein [2] were 22.6 nM and 13.8 nM, respectively.

In the case of “AAAUUACAUGAGGAUCACCCAUGUAGCGACGUUACAGGAUAUGUGGGUGAAAAUAGCAUGACAGAAGGGUACCGUA [SameState1 Malc#39]”, the “apparent KD of MS2 coat protein” value came to 77 nM in the series on MS2 coat protein [1] and 60.8 nM with MS2 coat protein [2].

For the sequence “AAAUUACAUGAGGAUCACCCAUGUUUAAAAAAUAUAGGAUAUGUAAAAAAAAAAAAAAAAACAGAAGGGUAAAAAA [I 'NO' this state well]”, the results for the “apparent KD of MS2 coat protein” value in the series on MS2 coat protein [1] and with MS2 coat protein [2] were 25.1 nM and 25.4 nM, respectively.

As to “AACAAUCUAUCUGAGGAUAUAUGUCGAAAGACAUGAGGAUCACCCAUGUGAAAACAUGAAAAAUCAUAGAAGGCAGAUAGAUUGA [SS2: 1138]”, the “apparent KD of MS2 coat protein” value in the series with MS2 coat protein [1] amounted to 49 nM; in the series with MS2 coat protein [2] it was 393 nM.

As for “AACAGACAUGAGGAUCACCCAUGUAGAAUUAUGGGAGGAUAUACAAAGACGAGAGUCAGAGUAGAAGGCCUAGGAU [salish99-ss1-166]”, the “apparent KD of MS2 coat protein” value stood at 22.8 nM with MS2 coat protein [1] and 63.4 nM with MS2 coat protein [2].

For the sequence “AACAGACAUGAGGAUCACCCAUGUAGGAUUAUGGGAGGAUAUACAAAGACGAGAGUCAGAGUAGAAGGCCUAGGAA [salish99-ss1-147]”, the “apparent KD of MS2 coat protein” value was determined as 16.7 nM with MS2 coat protein [1] and 57.9 nM in the series on MS2 coat protein [2].

As for “AACAUACAUGAGGAUCACCCAUGUUCCGGCAGGUCAGGAUAUAUAUCGAAAGAGUUAUAAAUAGAAGGGACAUAAA [JR_SS001_Sub009]”, the “apparent KD of MS2 coat protein” value in the series on MS2 coat protein [1] was 49.6 nM; with MS2 coat protein [2], 60.7 nM.

On to “AACCAACAUGAGGAUCACCCAUGUAGAAAUAUGGGAGGAUAUACAAACACGAAAGUGAAAGUAGAAGGCCUAAAAG [77%, Mat - Mod of Eli, 6]”, for which the “apparent KD of MS2 coat protein” value in the series with MS2 coat protein [1] worked out at 22.5 nM; with MS2 coat protein [2] it was 125 nM.

Consider “AACUACAUUAUGAAGGAUAUCCACAUCUAGACAUGAGGAUCACCCAUGUAUACUUAGAUCAUACAGGAGAAGGUCAAGGGUGAUU [JR_SS002_Sub1208]”, for which the “apparent KD of MS2 coat protein” value in the series with MS2 coat protein [1] was 172 nM; in the series on MS2 coat protein [2], 131 nM.

As for “AAGAAACAUGAGGAUCACCCAUGUAAAAAUAUGGGAGGAUAUACAAGGACGUAAGUCAAGGUAGAAGGCCUAAGAA [Mat - Same State 1 - Meechl mod - D136]”, the “apparent KD of MS2 coat protein” value with MS2 coat protein [1] came out at 20.2 nM; with MS2 coat protein [2], 82.5 nM.

Take “AAGAAACAUGAGGAUCACCCAUGUAAAUUCGAGAGAGGAUAUCGUACAUGGAAGAUUCAACGAGAAGGCUCUAGAA [Same State 1.1 (Pariah 3, G boost at 31)]”: the “apparent KD of MS2 coat protein” value was determined as 21 nM in the series on MS2 coat protein [1] and 79.6 nM with MS2 coat protein [2].

On to “AAGAAACAUGAGGAUCACCCAUGUAAGAUAAACACAGGAUAUGCAAAAGAAACAAAGAAAGCAGAAGGGUGAAGAA [Mat - Same State 1 - Tesla mod - 49]”, for which the “apparent KD of MS2 coat protein” value with MS2 coat protein [1] is 17.8 nM; in the series on MS2 coat protein [2] it was 48.4 nM.

For the sequence “AAGAAACAUGAGGAUCACCCAUGUAAGAUAAACACAGGAUAUGCGAAAAGAAACAAAGAAGCAGAAGGGUGAAGAA [Ex5 sub 1]”, the entries for the “apparent KD of MS2 coat protein” value in the series on MS2 coat protein [1] and in the series on MS2 coat protein [2] were 17 nM and 35.7 nM, respectively.

In the case of “AAGAAACAUGAGGAUCACCCAUGUAAGAUAAACACAGGAUAUGCGAAAAGAAAGAAAGAAGCAGAAGGGUGAAGAA [Mat - Same State 1 - Tesla mod - 39]”, the “apparent KD of MS2 coat protein” value turned out to be 17.4 nM in the series on MS2 coat protein [1] and 41.7 nM with MS2 coat protein [2].

Regarding “AAGAAACAUGAGGAUCACCCAUGUAAGAUAAACACAGGAUAUGCGAAAAUAAACAAAGAAGCAGAAGGGUGAAGAA [Mat - Same State 1 - Tesla mod - 62]”, the results for the “apparent KD of MS2 coat protein” value in the series with MS2 coat protein [1] and in the series on MS2 coat protein [2] were 13.5 nM and 41.9 nM, respectively.

For “AAGAAACAUGAGGAUCACCCAUGUAGAAAUAUGGGAGGAUAUACAAGGACGAGAGUCAAGGUAGAAGGCCUAAGAA [Mat - Same State 1 - Meechl mod - D134]”, the “apparent KD of MS2 coat protein” value turned out to be 17.6 nM with MS2 coat protein [1] and 111 nM with MS2 coat protein [2].

Turning to “AAGAAACAUGAGGAUCACCCAUGUGAGAACAUGGGAGGAUAUACGAAGACGAAAGUCGAAGUAGAAGGCCUAAAAG [Garnet 80]”, the “apparent KD of MS2 coat protein” value in the series on MS2 coat protein [1] stood at 243 nM; in the series with MS2 coat protein [2], 24.9 nM.

As for “AAGAAACAUGAGGAUCACCCAUGUGAGAUAAACACAGGAUAUGCGAAAAUAAACAAAUAAGCAGAAGGGUGAAGAA [Mat - Same State 1 - Tesla mod - 68]”, the “apparent KD of MS2 coat protein” value in the series on MS2 coat protein [1] worked out at 32.9 nM; in the series with MS2 coat protein [2], 74.8 nM.

For the sequence “AAGAAACAUGAGGAUCACCCAUGUGAUAAUAUGGGAGGAUAUACAAGGACGUAAGUCAAGGUAGAAGGCCUAAGAA [Mat - Same State 1 - Meechl mod - D140]”, the “apparent KD of MS2 coat protein” value was determined as 30.5 nM in the series on MS2 coat protein [1] and 61.6 nM in the series with MS2 coat protein [2].

With “AAGAAACAUGAGGAUCACCCAUGUGAUAAUAUGGGAGGAUAUACGAAGUCGAAAGUCGAAGUAGAAGGCCUAAGAA [Garnet 41]”, the results for the “apparent KD of MS2 coat protein” value in the series with MS2 coat protein [1] and with MS2 coat protein [2] were 49 nM and 186 nM, respectively.

Consider “AAGAAACAUGAGGAUCACCCAUGUGUAAAUAUGGGAGGAUAUACAAGGACGUAAGUCAAGGUAGAAGGCCUAAGAA [Mat - Same State 1 - Meechl mod - D137]”, for which the figures for the “apparent KD of MS2 coat protein” value with MS2 coat protein [1] and in the series on MS2 coat protein [2] were 29.4 nM and 319 nM, respectively.

Regarding “AAGAAAGAAACGCAGGAUAUGCAAAACAAAACAUGAGGAUCACCCAUGUCAAACAAACAAACAAAGCAGAAGGGCGAAAGAAAGAA [Same State 2 AA]”, the “apparent KD of MS2 coat protein” value in the series with MS2 coat protein [1] amounted to 18.1 nM; with MS2 coat protein [2] it was 21.3 nM.
